This note sets out measurements from patent US20260137799A1, “ANTI-MUC1* ANTIBODY DRUG COMPLEXES AND USES THEREOF” (Minerva Biotechnologies Corporation, priority 2023, published 2026).

Data set [1] concerns NCI-H1975. Put plainly: xCELLigence impedance cytotoxicity, NCI-H1975. The data set is classed as cell-based, human. To be noted: Example 9 (FIGS. 35-36); read-out: IC50 for killing of H1975-wt cells. The method, then: (§1) An xCELLigence RTCA MP Instrument (Agilent) was used to assess real-time killing of target cancer cells). In the xCELLigence system, target cancer cells, which are adherent, are plated onto electrode array 96-well plates. Adherent cells insulate the electrode and increase the impedance. The number of adherent cancer cells is directly proportional to impedance. […] Therefore, increasing impedance reflects the growth of the cancer cells and decreasing impedance reflects the killing of the cancer cells.
(§2) Target Cancer cells (Table 9) were seeded onto a multi-electrode well plate at a density of 5000 cells/well (100 μL of a 50,000 cells/mL stock) and incubated for 24 hr in a 37° C./5% CO2 incubator. ADCs were prepared as a 2× solution in corresponding growth media and 100 μL of each concentration was added to target cells. As a positive control (100% cell killing) cells were treated with either 1% triton or 1 μM Taxol instead of ADC. After 40-120 hours incubation in a 37° C./5% CO2 incubator cell killing was assessed. In this assay, impedance is measured in real-time. When the adherent cancer cells are killed and come off the electrode surface, impedance (insulation) decreases.

Data set [2] relates to MUC1* negative HEK-293-TN cells. In words: Bystander killing of non-target cells. It counts as cell-based. The method, then: The cell population was doped with H1975-MUC1*45-GFP cells as indicated. FIGS. 31A1-31A20 show the effect of C2-MC-GGFG-AM-DXd (SEQ ID NO: 160) on the non-target cells. […] FIGS. 31C1-31C20 show the effect of C2-MC-VA-PAB-exatecan on the non-target cells.
FIGS. 33A-33H show graphs of the integrated pixel density of non-target cancer cells as a function of doping cell population with cells expressing high amounts of MUC1*45. FIGS. 33A-33D show the effect when the cells were treated with C2-MC-GGFG-AM-DXd (SEQ ID NO: 160). FIGS. 33E-33H show the effect when the cells were treated with C2-MC-VA-PAB-exatecan.
In another experiment, we investigated the killing of off-target cells (MUC1* negative HEK-293-TN cells) as well as low antigen expressing target cells (H1975 lung cancer) due to a “bystander” effect (FIGS. 32A1-32D20, FIGS. 33A-33H and FIGS. 34A-34H). To assess the killing of non-target cells adjacent to cells with high MUC1* expression, we doped non-target cells expressing an mCherry marker with varying percentages of target cells that express GFP. 56 nM C2-MC-VA-PAB-exatecan killed nearly all the neighboring non-target cells when the cell population was doped with 30% of the high antigen expressing target cells (FIG. 32C17). […]

Data set [3] deals with low MUC1* expressing, mCherry H1975 lung cancer cells. Put plainly: Bystander killing of low antigen expressing cancer cells. The data set is classed as cell-based, human. As to conditions: 56 nM ADC; population contained 30% high MUC1* expressing H1975-MUC1*-GFP cells.
The subject of data set [4] is H2110-wt lung cancer cell line. Put plainly: xCELLigence impedance cytotoxicity, H2110. It counts as cell-based, human. To be noted: Example 9 (FIGS. 35-36); read-out: IC50, lung cancer H2110-wt cells. How it is done: as §1, §2
(§3) To directly compare the C2 and 3C2B1 anti-MUC1* antibodies as ADC targeting domains, a panel of MUC1* positive cancer cell lines representing different cancer types were treated with C2-deruxtecan versus 3C2B1-deruxtecan (FIG. 35) or C2-MC-VA-PAB-exatecan versus 3C2B1-MC-VA-PAB-exatecan (FIG. 36). In some cases, the cancer cells were engineered to express high levels of MUC1*45.

For data set [5], the system named is T47D. In words: xCELLigence impedance cytotoxicity, T47D. It counts as cell-based, human. As to conditions: Example 9 (FIGS. 35-36); average over batches for DXd ADCs; read-out: IC50 for killing of breast cancer T47D-wt cells. An outline of the steps:
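Adherent target cells plated at 5000/well on electrode plates were grown 24 h, then exposed to serially diluted ADCs in growth medium at 37° C/5% CO2. Killing was followed as real-time impedance loss over 40-120 h, normalized to 1% triton or 1 μM Taxol as 100% kill.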

In data set [6] the target is MUC1*45 (UniProt P15941 1110-1255). In words: cell-based or functional assay.
Data set [7] relates to CFPAC1-wt pancreatic cancer cell line. In words: xCELLigence impedance cytotoxicity, CFPAC1. The data set is classed as cell-based, human. As to conditions: Example 9 (FIGS. 35-36); read-out: IC50, CFPAC1-wt pancreatic cancer cells. How it is done:
as §1, §2, §3

The subject of data set [8] is breast cancer, pancreatic cancer, and lung cancer cell lines. In words: Cytotoxicity of ADCs with additional linkers and toxins (FIGS. 30-31). To be noted: breast cancer, pancreatic cancer, and lung cancer cells. The data set is classed as cell-based. The method, then: FIG. 30 is a table showing cytotoxicity of the indicated MUC1* ADCs against indicated cancer cells. IC50 values were determined from xCELLigence data. FIG. 30 discloses “GGFG” as SEQ ID NO: 160, “GGGG” as SEQ ID NO: 161, “GGVA” as SEQ ID NO: 162, “GGVG” as SEQ ID NO: 163.
FIG. 31 is a table showing cytotoxicity of the indicated MUC1* ADCs against indicated cancer cells. IC50 values were determined from PrestoBlue data.
An anti-MUC1* antibody was conjugated to several toxins via a number of different linkers (compounds VIII-XXII).

Data set [9] has as its system T47D-MUC1*. In words: xCELLigence impedance cytotoxicity, T47D-MUC1*. The data set is classed as cell-based, human. To be noted: Example 9 (FIGS. 35-36); read-out: IC50, T47D cells engineered to express more MUC1*45. How it is done:
as §1, §2

B1: C2-MC-VA-PAB-exatecan (antibody, mouse IgG1, kappa)
VH: EVQLEESGGGLVKPGGSLKLSCAASGFTFSGYAMSWVRQTPEKRLEWVATISSGGTYIYYPDSVKGRFTISRDNAKNTLYLQMSSLRSEDTAMYYCARLGGDNYYEYFDVWGAGTTVTVSSAKTTPPSVYAKTTPPSVYPLAPGSAAQTNSMVTLGCLVKGYFPEPVTVTWNSGSLSSGVHTFPAVLQSDLYTLSSSVTVPSSTWPSETVTCNVAHPASSTKVDKKIVPRDCGCKPCICTVPEVSSVFIFPPKPKDVLTITLTPKVTCVVVDISKDDPEVQFSWFVDDVEVHTAQTQPREEQFNSTFRSVSELPIMHQDWLNGKEFKCRVNSAAFPAPIEKTISKTKGRPKAPQVYTIPPPKEQMAKDKVSLTCMITDFFPEDITVEWQWNGQPAENYKNTQPIMDTDGSYFVYSKLNVQKSNWEAGNTFTCSVLHEGLHNHHTEKSLSHSPGK
VL: DIVITQSTASLGVSLGQRATISCRASKSVSTSGYSYMHWYQQRPGQPPKLLIYLASNLESGVPARFSGSGSGTDFTLNIHPVEEEDAATYYCQHSRELPFTFGGGTKLEIKRADAAPTVSADAAPTVSIFPPSSEQLTSGGASVVCFLNNFYPKDINVKWKIDGSERQNGVLNSWTDQDSKDSTYSMSSTLTLTKDEYERHNSYTCEATHKTSTSPIVKSFNRNEC
modifications: MC-VA-PAB-exatecan on reduced cysteine thiols of the antibody, sites not stated; MC-VA-PAB-exatecan on reduced cysteine thiols of the antibody, sites not stated; DAR 5.1
In the case of B1, the 50% inhibitory concentration (IC50) (commonly the concentration at which inhibition is half-maximal) came out at 117 nM in data set [1]; 60 nM in data set [4]; 44 nM in data set [5]; 51 nM in data set [7]; 4 nM in data set [9]. Further, in data set [2] (56 nM ADC, population doped with 30% H1975-MUC1*45-GFP target cells, 120 hours), the “killing of neighboring non-target cells” value was “nearly all”. Besides, the non-specific cytotoxicity result in data set [2] (pure populations of non-target HEK-293-TN cells) is recorded as “limited amount of non-specific cytotoxicity”. In data set [3], the “low MUC1* expressing cancer cells killed” value is reported as “about 75%”. In addition, in data set [6], the “IC50, killing of H1975 cells engineered to express MUC1*45 (xCELLigence)” value amounted to 9 nM. Moreover, in data set [8], the “activity compared to deruxtecan ADC” value was “enhanced activity”.
